# Laboratory results taken from patent US20220363770A1 (Amgen, published 2022).
# Substitutions are numbered along the chain they refer to.
# T1: human PAC1 receptor (human, UniProt P41586 24-468)
# T1 sequence: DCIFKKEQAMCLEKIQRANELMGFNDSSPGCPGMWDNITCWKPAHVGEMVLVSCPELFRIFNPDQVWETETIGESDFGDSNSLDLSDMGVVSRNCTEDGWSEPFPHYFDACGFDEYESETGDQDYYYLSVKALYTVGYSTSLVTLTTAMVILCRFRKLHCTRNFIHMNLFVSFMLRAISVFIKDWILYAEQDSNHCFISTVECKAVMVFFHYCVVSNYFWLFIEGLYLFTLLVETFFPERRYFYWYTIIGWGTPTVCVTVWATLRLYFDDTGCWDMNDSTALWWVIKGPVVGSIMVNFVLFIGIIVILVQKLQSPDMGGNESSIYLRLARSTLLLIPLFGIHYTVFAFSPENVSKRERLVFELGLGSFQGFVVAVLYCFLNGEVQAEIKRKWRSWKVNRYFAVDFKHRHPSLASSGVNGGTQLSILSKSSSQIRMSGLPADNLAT
# B1: iPS:454741 (bispecific antibody, human IgG1, kappa, lambda, N297G)
# light 1: QSVLTQPPSVSAAPGQKVTISCSGSYSNIGRYSVSWYQQLPGTAPKLLIYDNNKRPSGIPDRFSGSKSGTSATLGITGLQTGDEADYYCGTWDSRLSAVVFGGGTKLTVLGQPKAAPSVTLFPPSSEELQANKATLVCLISDFYPGAVTVAWKADSSPVKAGVETTTPSKQSNNKYAAKSYLSLTPEQWKSHRSYSCQVTHEGSTVEKTVAPTECS
# heavy 1: QVQLVESGGGVVQPGRSLRLSCAASGFTFSSFGMHWVRQAPGKGLEWVAVISFDGSIKYSVDSVKGRFTISRDNSKNTLFLQMNSLRAEDTAVYYCARDRLNYYESSGYYHYKYYGMAVWGQGTTVTVSSASTKGPSVFPLAPSSKSTSGGTAALGCLVKDYFPEPVTVSWNSGALTSGVHTFPAVLQSSGLYSLESVVTVPSSSLGTQTYICNVNHKPSNTKVDKKVEPKSCDKTHTCPPCPAPELLGGPSVFLFPPKPKDTLMISRTPEVTCVVVDVSHEDPEVKFNWYVDGVEVHNAKTKPCEEQYGSTYRCVSVLTVLHQDWLNGKEYKCKVSNKALPAPIEKTISKAKGQPREPQVYTLPPSRKKMTKNQVSLTCLVKGFYPSDIAVEWESNGQPENNYKTTPPVLKSDGSFFLYSKLTVDKSRWQQGNVFSCSVMHEALHNHYTQKSLSLSPGK
# light 2: EIVLTQSPATLSLSPGERATLSCRASKSVGQSLHWYQQKPGQAPRLLIKYASQSLSGIPARFSGSGSGTDFTLTISSLEPEDFAVYYCHQSSRLPFTFGPGTKVDIKRTVAAPSVFIFPPSDEQLKSGTASVVCLLNNFYPREAKVQWKVDNALQSGNSQESVTEQDSKDSTYSLESTLTLSKADYEKHKVYACEVTHQGLSSPVTKSFNRGEC
# heavy 2: not shown
# B2: iPS:454769 (bispecific antibody, human IgG1, kappa, lambda, N297G)
# light 1: B1 light 1
# heavy 1: B1 heavy 1
# light 2: B1 light 2 with Q31R
# heavy 2: not shown
# B3: iPS:454763 (bispecific antibody, human IgG1, kappa, lambda, N297G)
# light 1: B1 light 1
# heavy 1: B1 heavy 1
# light 2: B1 light 2 with K27Q, Q31R
# heavy 2: not shown
# B4: iPS:454789 (bispecific antibody, human IgG1, kappa, lambda, N297G)
# light 1: B1 light 1
# heavy 1: B1 heavy 1
# light 2: B1 light 2 with Q31W
# heavy 2: not shown
# B5: iPS:454749 (bispecific antibody, human IgG1, kappa, lambda, N297G)
# light 1: B1 light 1
# heavy 1: B1 heavy 1
# light 2: B1 light 2 with Q31R
# heavy 2: not shown
# B6: iPS:454773 (bispecific antibody, human IgG1, kappa, lambda, N297G)
# light 1: B1 light 1
# heavy 1: B1 heavy 1
# light 2: B1 light 2 with S28A, Q31W
# heavy 2: not shown
# B7: iPS:454787 (bispecific antibody, human IgG1, kappa, lambda, N297G)
# light 1: B1 light 1
# heavy 1: B1 heavy 1
# light 2: B1 light 2 with Q31W
# heavy 2: not shown
# B8: iPS:454783 (bispecific antibody, human IgG1, kappa, lambda, N297G)
# light 1: B1 light 1
# heavy 1: B1 heavy 1
# light 2: B1 light 2 with Q31W
# heavy 2: not shown
# B9: iPS:454757 (bispecific antibody, human IgG1, kappa, lambda, N297G)
# light 1: B1 light 1
# heavy 1: B1 heavy 1
# light 2: B1 light 2 with Q31R
# heavy 2: not shown
# B10: iPS:454753 (bispecific antibody, human IgG1, kappa, lambda, N297G)
# light 1: B1 light 1
# heavy 1: B1 heavy 1
# light 2: B1 light 2 with Q31R
# heavy 2: not shown
# B11: iPS:454743 (bispecific antibody, human IgG1, kappa, lambda, N297G)
# light 1: B1 light 1
# heavy 1: B1 heavy 1
# light 2: B1 light 2
# heavy 2: not shown
# B12: iPS:454751 (bispecific antibody, human IgG1, kappa, lambda, N297G)
# light 1: B1 light 1
# heavy 1: B1 heavy 1
# light 2: B1 light 2 with Q31R
# heavy 2: not shown
# B13: iPS:454759 (bispecific antibody, human IgG1, kappa, lambda, N297G)
# light 1: B1 light 1
# heavy 1: B1 heavy 1
# light 2: B1 light 2 with Q31R
# heavy 2: not shown
# B14: iPS:454745 (bispecific antibody, human IgG1, kappa, lambda, N297G)
# light 1: B1 light 1
# heavy 1: B1 heavy 1
# light 2: B1 light 2 with S28A, Q31F, R93F
# heavy 2: not shown
# B15: iPS:454755 (bispecific antibody, human IgG1, kappa, lambda, N297G)
# light 1: B1 light 1
# heavy 1: B1 heavy 1
# light 2: B1 light 2 with Q31R
# heavy 2: not shown
# B16: iPS:454767 (bispecific antibody, human IgG1, kappa, lambda, N297G)
# light 1: B1 light 1
# heavy 1: B1 heavy 1
# light 2: B1 light 2 with K27Q, Q31R
# heavy 2: not shown
# B17: iPS:454765 (bispecific antibody, human IgG1, kappa, lambda, N297G)
# light 1: B1 light 1
# heavy 1: B1 heavy 1
# light 2: B1 light 2 with K27Q, Q31R
# heavy 2: not shown
# B18: iPS:454747 (bispecific antibody, human IgG1, kappa, lambda, N297G)
# light 1: B1 light 1
# heavy 1: B1 heavy 1
# light 2: EIVLTQSPATLSLSPGERATLSCRASRAVSNLHWYQQKPGQAPRLLIKYASQSLSGIPARFSGSGSGTDFTLTISSLEPEDFAVYYCHQSSYLPFTFGPGTKVDIKRTVAAPSVFIFPPSDEQLKSGTASVVCLLNNFYPREAKVQWKVDNALQSGNSQESVTEQDSKDSTYSLESTLTLSKADYEKHKVYACEVTHQGLSSPVTKSFNRGEC
# heavy 2: not shown
# B19: iPS:454771 (bispecific antibody, human IgG1, kappa, lambda, N297G)
# light 1: B1 light 1
# heavy 1: B1 heavy 1
# light 2: B1 light 2 with Q31R
# heavy 2: not shown
# B20: iPS:454785 (bispecific antibody, human IgG1, kappa, lambda, N297G)
# light 1: B1 light 1
# heavy 1: B1 heavy 1
# light 2: B1 light 2 with Q31W
# heavy 2: not shown
# B21: iPS:454775 (bispecific antibody, human IgG1, kappa, lambda, N297G)
# light 1: B1 light 1
# heavy 1: B1 heavy 1
# light 2: B1 light 2 with Q31W
# heavy 2: not shown
# B22: iPS:454761 (bispecific antibody, human IgG1, kappa, lambda, N297G)
# light 1: B1 light 1
# heavy 1: B1 heavy 1
# light 2: B1 light 2 with Q31R
# heavy 2: not shown
# Target: T1, human PAC1 receptor
# Experiment: cell-based or functional assay
Fold-improvement over 29G4v22 Ab [fold],IC50 [pM],Binder
4.2,1580,B1
7.2,780,B2
8.5,750,B3
5.5,1190,B4
7.5,830,B5
7.7,830,B6
9.5,690,B7
9.1,620,B8
9.2,680,B9
10.4,610,B10
3.8,1660,B11
12.2,520,B12
8.5,740,B13
5.2,1200,B14
9.2,690,B15
9,710,B16
7.8,710,B17
2,3090,B18
7.6,840,B19
4.6,1430,B20
6.7,830,B21
6.4,970,B22

# Target: human CGRP receptor (human, UniProt Q16602 23-461; O60894 27-148)
# Sequence (Q16602 23-461 limits assumed, chain 1 of 2): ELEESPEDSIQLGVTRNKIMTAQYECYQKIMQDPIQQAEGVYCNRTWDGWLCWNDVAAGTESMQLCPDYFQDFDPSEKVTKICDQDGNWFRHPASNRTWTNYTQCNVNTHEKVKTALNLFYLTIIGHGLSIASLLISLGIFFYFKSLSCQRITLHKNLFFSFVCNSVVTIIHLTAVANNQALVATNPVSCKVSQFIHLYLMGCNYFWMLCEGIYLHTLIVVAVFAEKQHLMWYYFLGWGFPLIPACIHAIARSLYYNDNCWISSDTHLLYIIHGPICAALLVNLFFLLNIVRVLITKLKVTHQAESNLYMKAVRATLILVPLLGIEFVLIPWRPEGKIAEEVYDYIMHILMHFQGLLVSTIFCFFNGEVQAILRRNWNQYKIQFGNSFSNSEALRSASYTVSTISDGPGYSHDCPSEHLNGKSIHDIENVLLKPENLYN
# Sequence (O60894 27-148 limits assumed, chain 2 of 2): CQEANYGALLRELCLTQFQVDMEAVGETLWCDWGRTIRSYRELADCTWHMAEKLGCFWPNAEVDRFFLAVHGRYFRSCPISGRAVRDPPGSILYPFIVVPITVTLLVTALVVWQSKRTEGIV
# Experiment: cell-based or functional assay
Fold-improvement over 4E4 Ab [fold],IC50 [pM],Binder
0.8,640,B1
1.7,320,B2
1.5,320,B3
1.7,290,B4
1.4,410,B5
0.9,570,B6
1.8,270,B7
1.1,480,B8
1.4,430,B9
1.3,370,B10
1.1,520,B11
1.2,430,B12
1.5,390,B13
1.3,460,B14
1.8,270,B15
1.2,410,B16
1.6,340,B17
1.2,490,B18
1.4,370,B19
1.1,470,B20
1.4,380,B21
1.4,420,B22
